In patent publication US11103562B2, “Composition comprising alkaline phosphatase for use in the treatment of arthritides” (AMRIF BV, priority 2017, dated 2021):

Experiments:
[1] = test system: arthritic rats; experiment: Knee swelling in rats with mBSA antigen-induced arthritis; type: in vivo, rat
Description: Experiments were performed using a rat model for RA as published by Chandruputla et al. (BioMed Int, 2015) to show the effects of recombinant human alkaline phosphatase (hRESCAP) on RA. hRESCAP was compared with MTX used as a positive control. The antigen-induced rat model uses two subcutaneous immunizations with a mixture of methylated bovine serum albumin (mBSA), CFA (complete Freund's adjuvant antigen) and CBP (custom Bordetella pertussis antigen) and intra-articular injections of mBSA on one side knee and saline (negative control) on the counter knee. Immunohistochemical (IHC) analysis specifically focussed on infiltration with macrophages and knee swelling is followed over time after therapeutic treatment with MTX, or hRESCAP.
In the rat model, RA is induced in the right knee (RA knee), the contralateral left knee serves as a internal control (control knee). The model allows various options for therapeutic interventions, either before intra-articular injections or during boosts injections with mBSA. Two hours prior to AP administration, rats received a dose of levamisole (50 mg/kg, s.c.). For comparison, arthritic rats received treatment with methotrexate (1 mg/kg, i.p.).
(§1) All rats (except healthy) were immunized and arthritis was induced via 1× or 4× intra-articular (i.a) mBSA injections, 4 or 5 days apart in the arthritic (right) knee, the contralateral (left, non-arthritic) knee serving as control knee. For therapeutic interventions, AP (human recombinant placenta AP, TNO, Zeist, The Netherlands) was administered subcutaneously (s.c.) at a dose of 700 U/kg (≈200 μg), MTX (VU University Medical Centers' Pharmacy) was administered intra-peritoneal (i.p.) at two dosages: 0.3 mg/kg (low dose) and 1.0 mg/kg (high dose). The rats were divided in 8 groups, based on different treatments and treatment schedules. In a prophylactic setting, two rats received AP twice prior to intra-articular (i.a.) arthritis induction and four rats received AP twice prior to intra-articular and 4× PBS in between i.a. injections. In the treatment groups, arthritic rats were administered AP twice or 4× after arthritis induction, either as standalone therapy or in combination with low or high dose MTX. Control rats received 500 μL of PBS (i.p.). […] At the end of study, all rats were sacrificed and tissues were excised for further processing and various analyses.

[2] = test system: macrophages; experiment: [^18F]fluoro-PEG-folate macrophage PET-CT imaging of arthritic knees; type: in vivo; conditions: PET scan at day 40; one rat per group
Text: The macrophage PET tracer [^18F]fluoro-PEG-folate was synthesized, with a radiochemical purity of >96.5% and mean specific activity of 27.6±3.5 GBq/μmol. Untreated and 4× AP-treated arthritic were anesthetized using inhalation anaesthetics (isoflurane 2-2.5% and oxygen […]). The tail vein was cannulated with a poly-urethane 3 French cannula (0.7 mm×19 mm, BD Angiocath, Breda, The Netherlands). During PET-CT (Mediso nanoPET-CT, Budapest, Hungary) rats were place in an integrated heating bed (˜35° C.) while monitoring respiratory function. Computed tomography (CT) scan was performed for 5 min, followed by tracer administration (10.7±1.8 MBq) at the start of a dynamic PET scan of 60 min. PET data were normalized, and corrected for scatter, randoms, attenuation, decay and dead time. The list mode PET data were rebinned in 19 successive frames (4×5, 4×10, 2×30, 3×60, 2×300, 3×600 and 1×900 s), which were reconstructed using an iterative 3D Poisson ordered-subsets expectation-maximization algorithm with 4 iterations and 6 subsets. […] The CT and PET images were superimposed for drawing the regions of interest (ROI). […] TACs were expressed as standardized uptake values (SUV), i.e. mean ROI radioactivity concentration normalized to injected dose and body weight.

[3] = Tolerability of therapeutic interventions in arthritic rats; type: in vivo
Description: as §1

[4] = test system: macrophages
Description: At the end of the treatment period, arthritic rats receiving 4× AP, 4× AP/low dose MTX, 4× AP/high dose MTX treatment, and untreated rats, were administered with [^18F]fluoro-PEG-folate tracer. Sixty minutes after tracer administration, rats were sacrificed. Low and high dose MTX treated arthritic rats were sacrificed without tracer administration. Upon sacrificing, all rats were excised and knees, blood and various internal organs were collected, rinsed, dipped dry, weighed and the amount of radioactivity determined using an LKB 1282 Compugamma CS gamma counter (LKB, Wallac, Turku, Finland). Results for tracer uptake in the various tissues were expressed as percentage of the injected dose per gram tissue (%ID/g).

[5] = rats; cited from earlier work
[6] = 4x AP, 60 min post tracer injection
[7] = arthritic rats, 60 min after tracer

B1: AP: human recombinant placenta alkaline phosphatase (hRESCAP; TNO, Zeist), an ectophosphatase (protein, UniProt P05187 23-506, looked up)
Alkaline phosphatase, …: IIPVEEENPDFWNREAAEALGAAKKLQPAQTAAKNLIIFLGDGMGVSTVTAARILKGQKKDKLGPEIPLAMDRFPYVALSKTYNVDKHVPDSGATATAYLCGVKGNFQTIGLSAAARFNQCNTTRGNEVISVMNRAKKAGKSVGVVTTTRVQHASPAGTYAHTVNRNWYSDADVPASARQEGCQDIATQLISNMDIDVILGGGRKYMFRMGTPDPEYPDDYSQGGTRLDGKNLVQEWLAKRQGARYVWNRTELMQASLDPSVTHLMGLFEPGDMKYEIHRDSTLDPSLMEMTEAALRLLSRNPRGFFLFVEGGRIDHGHHESRAYRALTETIMFDDAIERAGQLTSEEDTLSLVTADHSHVFSFGGYPLRGSSIFGLAPGKARDRKAYTVLLYGNGPGYVLKDGARPDVTESESGSPEYRQQSAVPLDEETHAGEDVAVFARGPQAHLVHGVQEQTFIAHVMAFAACLEPYTACDLAPPAGTTD
**Q.** With B1 as the molecule, how does the “swelling of the mBSA-injected right knee” value ([1]; prophylactic and therapeutic AP treatment or MTX treatment, versus positive control) read?
**A.** Its value is “Reduced swelling”.

**Q.** And the “swelling of the non-treated left knee” value ([1]; versus positive control treatment)?
**A.** The value was “swelling is reduced”.

**Q.** What about the “increased [^18F]fluoro-PEG-folate uptake (SUV) in arthritic knee of the untreated rat compared to the 4× AP-treated rat” value [2] of the same molecule?
**A.** The value was 1.5 fold.

**Q.** What about the “changes in body weight” value [3] of the same molecule?
**A.** Its value is “nor were significant changes in the body weight observed”.

**Q.** What about the “tolerability / adverse effects” value ([3]; AP 700 U/kg, MTX 0.3 or 1.0 mg/kg) of the same molecule?
**A.** The value was “well tolerated”.

**Q.** And the “[^18F]fluoro-PEG-folate uptake, Heart, Avg” value [4, 6]?
**A.** The value was 0.117 % ID/g.

**Q.** What about the “[^18F]fluoro-PEG-folate uptake, Liver, Avg” value [4, 6] of the same molecule?
**A.** The value was 0.151 % ID/g.

**Q.** And the “[^18F]fluoro-PEG-folate uptake, Lung, Avg” value [4, 6]?
**A.** Its value is 0.111 % ID/g.

**Q.** And the “[^18F]fluoro-PEG-folate uptake, Spleen, Avg” value [4, 6]?
**A.** Its value is 0.779 % ID/g.

**Q.** What about the “[^18F]fluoro-PEG-folate uptake in kidney and intestine (in words)” value [4, 7] of the same molecule?
**A.** The value was “not impacted”.

**Q.** And the “[^18F]fluoro-PEG-folate uptake in lung, heart, liver and spleen (in words)” value [4, 7]?
**A.** The value was “reductions”.

**Q.** And the half life time [5]?
**A.** The half life time was “≈ 3 days”.
